Target: His/S-tagged OCRL1, full length, recombinant (human, UniProt Q01968 1-901)
Assay: pull-down

binding result: binds
B1: GST APPL1 (aa 403-413), minimal OCRL1 binding domain of APPL1 (peptide)
chain: SFQQRHESLRP

Source: paper PMC3046058 (Molecular Biology of the Cell, 2011)
